According to PMC11853025:

How the values were obtained:
iC3b [1] = target: iC3b (UniProt P01024); test: SPR; C3b deposited on a CM5 chip (amine-coupled seed, then convertase-mediated deposition to about 5000 RU), iC3b and C3dg made from it on the chip; αI domains injected as dilution series, 120 s; Biacore T200, 25 °C; HBST (10 mM HEPES, 150 mM NaCl, 0.005% Tween-20, pH 7.4) with 1 mM MgCl2; Langmuir 1:1 fit, KD calculated
iC3b [2] = target: iC3b (UniProt P01024); test: SPR; competitive: αI domains at 5 µM preincubated with simvastatin (3-100 µM), injected over immobilised iC3b or ICAM-1; HBST with 1 mM MgCl2 and 5% DMSO; signal as percent of the non-inhibited signal

Kd (iC3b [1]) [µM]	residual binding activity with simvastatin (percent of the non-inhibited signal) (iC3b [2]) [%]	Binder
33		CR4 αXI domain, wild type (WT) (domain or fragment) QEQDIVFLIDGSGSISSRNFATMMNFVRAVISQFQRPSTQFSLMQFSNKFQTHFTFEEFRRSSNPLSLLASVHQLQGFTYTATAIQNVVHRLFHASYGARRDAAKILIVITDGKKEGDSLDYKDVIPMADAAGIIRYAIGVGLAFQNRNSWKELNDIASKPSQEHIFKVEDFDALKDIQNQLKEKIFAI
2.6	63	CR4 αXI domain, high-affinity (HA) variant p.I333G (domain or fragment) QEQDIVFLIDGSGSISSRNFATMMNFVRAVISQFQRPSTQFSLMQFSNKFQTHFTFEEFRRSSNPLSLLASVHQLQGFTYTATAIQNVVHRLFHASYGARRDAAKILIVITDGKKEGDSLDYKDVIPMADAAGIIRYAIGVGLAFQNRNSWKELNDIASKPSQEHIFKVEDFDALKDIQNQLKEKGFAI
